Laboratory results published in patent US20090214428A1 (HENRY M JACKSON FOUNDATION FOR THE ADVANCEMENT OF MILITARY …, published 2009).
Substitutions are numbered along the chain they refer to.

B1: Fab m103 (Fab, V domains shown)
VH: EVQLVESGGGLIQPGGSLRLSCAASGFTVSSNYMSWVRQAPGKGLEWVSVIYSGGSTYYADSVKGRFTISRDNSKNTLYLQMNSLRAEDTAVYYCARDSRYHDAFDIWGQGTMVTVSS
VL: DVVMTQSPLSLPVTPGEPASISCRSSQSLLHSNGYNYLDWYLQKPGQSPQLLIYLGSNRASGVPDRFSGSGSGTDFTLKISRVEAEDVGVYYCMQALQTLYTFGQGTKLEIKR
B2: Fab m101 (Fab, V domains shown)
VH: QVQLVQSGAEVKKPGASVKVSCKASGGTFSSYAISWVRQAPGQGLEWMGGIIPIFGTANYAQKFQGRVTITADESTSTAYMELSSLRSGDTAVYYCARDPGGYSYGPYYYYYGMDVWGQGTTVTVSS
VL: DIQMTQSPSSVSASVGDRVTITCRASQGIGPWLAWYQQKPGKAPKFLIYRASTLQSGVPSRFSGSGSGTDFTLTISSLQPEDFATYYCQQAHSFPFTFGPGTKVDIKR
B3: IgG1 m101 (antibody, V domains shown)
VH: B2 VH
VL: B2 VL
B4: Fab m109 (Fab, V domains shown)
VH: QMQLQQWGAGLLKPSETLSLTCAVYGGSFSGYYWSWIRQPPGKGLEWIGEINHSGSTNYNPSLKSRVTISVDTSKNQFSLKLSSVTAADTAVYYCARGWFRDWYFDLWGRGTLVTVSS
VL: DIQMTQSPSSLSASVGDRVTITCRASQDIRNDLGWYQQRPGKAPKLLIYAASSLQSGVPSRFSGSGSGTDFTLTISSLQPEDSATYFCLQDYQYPWTFGQGTKVEIKR
B5: Fab m107 (Fab, V domains shown)
VH: EVQLVQSGAEVKKPGASVKVSCKASGYTFTGYYMHWVRQAPGQGLEWMGIINPSGGSTSYAQKFQGRVTMTRDTSTSTVYMELSSLRSEDTAVYYCARDHVHGPDAFDIWGQGTMVTVSS
VL: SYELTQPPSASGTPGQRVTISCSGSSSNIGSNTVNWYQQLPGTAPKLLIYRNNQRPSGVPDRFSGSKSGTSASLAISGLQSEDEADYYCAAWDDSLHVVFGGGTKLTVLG
B6: Fab m105 (Fab, V domains shown)
VH: QVQLVQSGGGVVQPGRSLRLSCAASGFTFSSYAMHWVRQAPGKGLEWVAVISYDGSNKYYADSVKGRFTISRDNSKNTLYLQMNSLRAEDTAVYYCARVGGITGTADAFDIWGQGTMVTVSS
VL: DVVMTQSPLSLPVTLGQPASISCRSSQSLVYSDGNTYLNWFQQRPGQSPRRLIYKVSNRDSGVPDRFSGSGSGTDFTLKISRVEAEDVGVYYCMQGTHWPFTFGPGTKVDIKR
B7: Fab m110 (Fab, V domains shown)
VH: EVQLVQSGGGLVQPGRSLRLSCAASGFTFDDYAMHWVRQAPGKGLEWVSAISGSGGSTYYADSVKGRFTISRDNSKNTLYLQMNSLRAEDTAVYYCASEGLPETDDAFDIWGQGTMVTVSS
VL: DVVMTQSPLSLPVTPGEPASISCRSSQSLLYSDGYNYLDWYLQKPGQSPQLLIYLGSRRASGVPDRFSGSGSGTDFTLKINTVEAEDVGVYYCMQGVEIPFTFGPGTKVEIKR
B8: Fab m104 (Fab, V domains shown)
VH: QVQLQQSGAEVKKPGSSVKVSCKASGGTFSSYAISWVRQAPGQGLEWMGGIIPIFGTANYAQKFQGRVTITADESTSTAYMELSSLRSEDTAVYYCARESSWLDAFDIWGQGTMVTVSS
VL: DVVMTQSPLSLSVTAGEPASISCRSSQSLLHSNGHIYLDWYLQKPGQSPQLLIYMASNRASGVPDRFSGSGSGTDFTLRINRVETEDVGIYYCMQSLHTTRTFGQGTKVEIKR
B9: Fab m106 (Fab, V domains shown)
VH: QVQLQQSGAEVKKPGSSVKVSCKASGGTFSSYAISWVRQAPGQGLEWMGGIIPIFGTANYAQKFQGRVTITADKSTSTAYMELSSLRSEDTAVYYCARDQLAGYYYDSSGYHYYYYGMDVWGQGTTVTVSS
VL: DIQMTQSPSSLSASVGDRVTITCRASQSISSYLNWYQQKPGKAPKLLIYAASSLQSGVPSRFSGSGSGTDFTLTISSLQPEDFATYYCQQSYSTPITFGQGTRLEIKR
B10: Fab m108 (Fab, V domains shown)
VH: EVQLVESGGGLVKPGGSLRLSCAASGFTFSDYYMSWIRQAPGKGLEWVSYISSSGSTIYYADSVKGRFTISRDNAKNSLYLQMNSLRAEDTAVYYCARVGGAFDIWGQGTMVTVSS
VL: NFMLTQPHSVSGSPGKTVTISCTRSSGSIASNYVQWYRQSPGSAPTTVIYEGYQRPSGVPDRFSGSIDSSSNSASLTISGLETEDEADYYCQSYDATNHQVVFGGGTKLTVL
B11: Fab m111 (Fab, V domains shown)
VH: QVQLVQSGAEVKKPGATVKISCKVSGYTFTDYYMHWVQQAPGKGLEWMGLVDPEDGETIYAEKFQGRVTITADTSTDTAYMELSSLRSEDTAVYYCATEGADYWGQGTLVTVSS
VL: DVVMTQSPLSLPVALGQPASISCRSSQSLVHSDGNTYLNWFQQRPGQSPRRLLYKVSNRESGVPDRFSGSGSGSDFTLKISRVEAEDVGIYYCMQGTHWPPITFGQGTRLEIKR
B12: Fab m112 (Fab, V domains shown)
VH: B11 VH with E62Q, D77N, E99D, G105D, V110G, S114T
VL: QSVLTQPPSVSGAPGQTVTISCTGSSSNIGGDSDVHWYQQLPGSAPKLLIYGNRNRPSGVPDRFSGSRSGTSASLAVIGVQADDEADYYCQCYDSSLNGYVFGPGTKVIVL
B13: Fab m116 (Fab, V domains shown)
VH: EVQLVQSGAEVKKPGSSVKVSCKASGGAFSSYAISWVRQAPGQGLEWMGGIIPIFGTANYAQKFQGRVTITADESTSTAYMELSSLRSEDTAVYYCARDSAGLGAWGQGTLVAVSS
VL: DIQMTQSPSSLSASVGDRVTITCRASQGISSALAWYQQKPGKAPKLLIYDASSLESGVPSRFSGSGSGTDFTLTISSLQPEDFATYYCQQFNSYPLTFGQGTRLEIKR
B14: Fab m113 (Fab, V domains shown)
VH: QVQLQQSGAEVKKPGSSVKVSCKASGGTFSSYAISWVRQAPGQGLEWMGWTNPNSGGTNYAQKLQGRVTMTTDTSTSTAYMELRSLRSDDTAVYYCANYKLQSDAFDIWGQGTMVTVSS
VL: DIQMTQSPSSLSASVGDRVTITCRASQDIGNFLVWFQQKPGKAPKSLIYAASRLQSGVPSRFSGSGSGTDFTLTISSLQPEDFATYYCQHYKSYPLTFGGGTKVEIKR
B15: Fab m117 (Fab, V domains shown)
VH: QITLKESGPTLVKPTQTLTLTCTFSGFSLSTSGVGVGWIRQPPGKALEWLALIYWDDDKRYSPSLKSRLTITKDTSKNQVVLTMTNMDPVDTATYYCAHRESGPEFFQHWGQGTLVTVSS
VL: DVVMTQSPLSLPVTLGQPASISCNSSQSLVYSNGITYLNWFHQRPGQSPRRLIYQVSNWDSEVPDRFSGSGSATDFTLKISRVEADDVGIYYCMQGTHWPPTFGQGTRLEIKR
B16: Fab m115 (Fab, V domains shown)
VH: QVQLQQSGAEVKKPGSSVKVSCKASGGTFRSYAISWVRQAPGQGLEWMGGIIPIFGTANYAQKFQGRVTITADESTSTAYMELSSLRSEDTAVYYCARGSQSYDHYYYYGMDVWGQGTTVTVSS
VL: QSALTQPASVSGSPGQSITISCTGTSSDVGGYNYVSWYQQHPGKAPKLMIFDVSNRPSGVSNRLSGSKSGNTASLTISGLQAEDEADYYCSSYTSNTVVFGGGTKLTVL

These binders were tested against T1, soluble Hendra virus G glycoprotein (sG) (Hendra virus, UniProt O89343 71-604) (assay: not given).
T1 sequence: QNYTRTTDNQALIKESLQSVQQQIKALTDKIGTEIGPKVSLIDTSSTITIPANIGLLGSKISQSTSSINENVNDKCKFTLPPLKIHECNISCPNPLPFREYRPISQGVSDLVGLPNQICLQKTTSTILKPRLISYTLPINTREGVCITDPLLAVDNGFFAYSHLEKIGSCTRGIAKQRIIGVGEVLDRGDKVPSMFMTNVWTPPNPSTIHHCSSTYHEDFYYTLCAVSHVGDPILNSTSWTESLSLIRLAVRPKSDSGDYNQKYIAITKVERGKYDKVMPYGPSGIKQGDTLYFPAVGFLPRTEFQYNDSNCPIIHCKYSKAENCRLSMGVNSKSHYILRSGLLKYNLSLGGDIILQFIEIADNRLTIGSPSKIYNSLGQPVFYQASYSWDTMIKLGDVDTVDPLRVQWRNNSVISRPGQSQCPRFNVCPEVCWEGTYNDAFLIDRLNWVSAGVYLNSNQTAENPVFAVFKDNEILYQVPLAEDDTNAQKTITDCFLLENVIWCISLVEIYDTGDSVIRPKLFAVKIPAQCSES

Row | Binder | Kd [µM]
1 | B1 | 1.8

What follows are binders tested against T2, HeV G envelope glycoprotein (on effector cells expressing HeV F and G, or on infectious HeV) (Hendra virus, UniProt O89343 1-604) (assay: cell-based or functional assay).
T2 sequence: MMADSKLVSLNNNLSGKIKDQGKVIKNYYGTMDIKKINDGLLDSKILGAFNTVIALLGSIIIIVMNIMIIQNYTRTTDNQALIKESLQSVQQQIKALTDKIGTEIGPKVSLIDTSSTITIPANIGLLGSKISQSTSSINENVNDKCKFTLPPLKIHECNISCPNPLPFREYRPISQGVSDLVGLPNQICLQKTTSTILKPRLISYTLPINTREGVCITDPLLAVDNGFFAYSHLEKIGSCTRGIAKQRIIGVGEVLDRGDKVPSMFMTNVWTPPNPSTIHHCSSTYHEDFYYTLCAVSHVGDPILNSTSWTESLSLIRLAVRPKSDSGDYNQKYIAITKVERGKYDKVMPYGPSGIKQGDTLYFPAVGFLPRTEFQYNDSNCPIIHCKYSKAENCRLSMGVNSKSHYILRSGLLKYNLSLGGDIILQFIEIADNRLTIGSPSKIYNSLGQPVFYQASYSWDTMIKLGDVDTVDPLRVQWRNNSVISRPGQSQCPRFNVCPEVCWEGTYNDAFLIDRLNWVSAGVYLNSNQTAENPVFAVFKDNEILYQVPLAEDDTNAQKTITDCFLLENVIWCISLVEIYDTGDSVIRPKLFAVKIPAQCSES

Row | Binder | IC50 of HeV Env-mediated cell fusion, reporter gene assay, PCI-13 target cells [mg/L]
2 | B2 | 38
3 | B3 | 1.2

Each binder was assayed against T1, soluble Hendra virus G glycoprotein (sG) (assay: ELISA, purified soluble Fab on coated sG).

Row | Binder | A450 [A450]
4 | B4 | 0
5 | B5 | 0.6
6 | B6 | 0.9
7 | B7 | 0
8 | B8 | 0.7
9 | B9 | 1.6
10 | B2 | 1
11 | B10 | 0.5
12 | B11 | 0
13 | B12 | 0.4
14 | B13 | 0.3
15 | B14 | 0.1
16 | B1 | 0.8
17 | B15 | 0
18 | B16 | 0.4

These binders were tested against T1, soluble Hendra virus G glycoprotein (sG) (assay: SPR (Biacore); upper end of the range told of the group, tied to m103 by Table 5).

Row | Binder | Kd [µM]
19 | B1 | 1

These binders were tested against T1, soluble Hendra virus G glycoprotein (sG) (assay: SPR (Biacore 1000), sG immobilised on CM5, Fab injected, 25 C, 1:1 Langmuir fit).

Row | Binder | Kd [µM] | koff [s⁻¹] | kon [M⁻¹ s⁻¹]
20 | B5 | 0.078 | 0.0022 | ~30000
21 | B6 | 0.069 | 0.0051 | 74000
22 | B8 | 0.6 | 0.0016 | 3000
23 | B9 | 0.054 | 0.0033 | 62000
24 | B2 | 0.028 | 0.0035 | 130000
